From paper doi:10.1101/2025.04.24.648904 (bioRxiv, 2025) come the findings set out here.

Broadly, the Kd is a measure of binding affinity in units of concentration. A higher Kd goes with weaker binding.

This assay addresses Hsp90 (Hsp82), full length (S. cerevisiae, UniProt P02829 1-709). Put plainly: AUC.

Sequence of Hsp90 (Hsp82), full length (P02829 whole entry): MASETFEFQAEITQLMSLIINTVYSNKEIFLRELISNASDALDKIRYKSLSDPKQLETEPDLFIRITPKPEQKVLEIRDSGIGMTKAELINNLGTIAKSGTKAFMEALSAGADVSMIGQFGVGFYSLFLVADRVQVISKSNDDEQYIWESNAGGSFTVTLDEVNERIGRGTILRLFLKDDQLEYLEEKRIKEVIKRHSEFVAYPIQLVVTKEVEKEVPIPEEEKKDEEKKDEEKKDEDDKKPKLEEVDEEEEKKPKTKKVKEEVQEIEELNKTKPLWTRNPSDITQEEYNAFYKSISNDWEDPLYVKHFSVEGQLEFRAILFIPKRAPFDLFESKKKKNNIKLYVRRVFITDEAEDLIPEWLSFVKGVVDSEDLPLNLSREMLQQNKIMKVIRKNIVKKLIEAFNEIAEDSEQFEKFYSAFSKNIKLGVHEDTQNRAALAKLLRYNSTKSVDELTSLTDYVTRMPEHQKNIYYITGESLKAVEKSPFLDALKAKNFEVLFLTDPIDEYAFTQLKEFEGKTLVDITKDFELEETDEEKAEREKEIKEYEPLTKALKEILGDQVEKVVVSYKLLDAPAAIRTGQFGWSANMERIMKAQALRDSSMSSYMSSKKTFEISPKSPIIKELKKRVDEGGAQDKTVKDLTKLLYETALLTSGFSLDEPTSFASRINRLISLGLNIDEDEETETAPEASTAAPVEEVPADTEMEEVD

B1: Sgt1 (Suppressor of the G2 Allele of Skp1), full length (natural protein, S. cerevisiae, UniProt Q08446 1-395, looked up)
chain: MPVEKDLKTAYKALYDEKEPLKALHLYDEILKGSPTNLTALIFKAACLEKLYFGFSDWHSDATMENAKELLDKALMTAEGRGDRSKIGLVNFRYFVHFFNIKDYELAQSYFKKAKNLGYVDDTLPLWEDRLETKLNKKNKKQKDSTNKHTIKPVESIENRGDNNSSHSPISPLKIETAPQESPKFKIDWYQSSTSVTISLFTVNLPESKEQVNIYISPNDRRTLSISYQVPKSGSEFQYNAKLSHEVDPKAVSLKIFPKKLEITLSKIDSTQWKKLEEDILTESSRLSDEGKNSDSATRLLSAETASKERLSYPSSSKKKIDWSKLDIDEEADEEAGSADSFFQKLYAGADPDTKRAMMKSFIESNGTALSTDWEDVSKGTVKTSPPEGMEPKHW
modifications: Atto488 (maleimide) label where it is the labeled species in aUC
Take B1: binding was characterised by a dissociation constant (Kd) of 510 nM. This counts as sub-micromolar.
